Assay results from paper PMC4801485.

Molecular target: cyclophilin from Geobacillus kaustophilus (Geobacillus kaustophilus)
Experiment: NMR line shape analysis

- koff of the trans isomer (kBA): 720 s⁻¹
- kon of the trans isomer (kAB): 5.2e+06 M⁻¹ s⁻¹
Binder: GSFGPDLRAGD [peptide substrate …]
